# From the DeepSol protein solubility set
# Assay: soluble on expression in E. coli; label from the status in PepcDB or PDB records
row,Sequence,soluble on expression in E. coli
1,SEGSASEVLKEWIVTGKKKNKKKKSKPKPASEASGSAPDSSKSAPIQEEQPASSEKGSINGYHVNGAINDAESVDSLSEGLETLSIDARELEDPEFAAAETLDRTGSVLENGVSDFEPKSLTAHSISNVQQSRNAAKSLSRTTPGAQVSNLGMENVPLSSTNKKLGSNIEKSVKDLQRCTVSLARYRVVVKEEMDASIKKMKQAFAELQSCLMDREVALLAEMDKVKAEAMEILLSRQKKAELLKKMTDVAVRMSEEQLVELRADIKHFVSERKYDEDLGRVARFTCDVETLKQSIDSFGQVSHPKNSYSTRSRCSLVAPVSLSGPSDGSAASSSPDASVPSLPGANKRNCAPREASAAMTNSSDRPCQAHREVFPGNRRGGQGYRAQSQKTADPSNPGRHDSVGRYRNSSWYSSGPRYQGVPPQAPGNAGERSRPYSAGTNGTGAISEPSPPKPSFKKGLPQRKPRASQAEAANS,not soluble
2,MPSIYITGVDPTIVKIHEIQGTGTASPLVNNVVTIEAIVVGDFQDGDGDISRNLRGFYVQEEDADVDGNVATSEGIFIFENGNFITDVNVGDKVQITGTVDEFFGETQIDTITNITVISSGNTLPTAANITLPTAGTTESQGGTPQPDLEAFEGMLVKFTDTLTITEMFNLDRFNEIKLSQGGRPQQFTQFNDANVAGYGAYREEIGARTITYDDGLSVQNAEISNLDGFGSSFSTASDIRMGDTINNLTGVLSYQWAGNASSGATWRVRSAVDGTNQFTKVNDRPVTPENVGGSLKVTGFNVLNYFKTIDLEHHHHHH,not soluble
3,RQLALEAKGETPSAVTRLSVVAKSEPQDEQSRSQSARRIILSRLKAGEVDLLEEELGHLTTLTDVVKGADSLSAILPGDIAEDDITAVLCFVIEADQITFETVEVSPKISTPPVLKLAAEQAPTGRVEREKTTR,soluble
4,MSLVMSGEKMKVIIVEDEFLAQQELSWLINTHSQMEIVGSFDDGLDVLKFLQHNKVDAIFLDINIPSLDGVLLAQNISQFAHKPFIVFITAWKEHAVEAFELEAFDYILKPYQESRIINMLQKLTTAWEQQNNAASGLASAAPRENDTINLIKDERIIVTSIHDIYYAEAHEKMTFVYTRRESFVMPMNITEEGHHHHHH,not soluble
5,MASVPVYCLCRLPYDVTRFMIECDMCQDWFHGSCVGVEEEKAADIDLYHCPNCEVLHGPSIMKKRRGSSKGHDTHKGKPVKTGSPTFVRELRSRTFDSSDEVILKPTGNQLTVEFLEENSFSVPILVLKKDGLGMTLPSPSFTVRDVEHYVGSDKEIDVIDVTRQADCKMKLGDFVKYYYSGKREKVLNVISLEFSDTRLSNLVETPKIVRKLSWVENLWPEECVFERPNVQKYCLMSVRDSYTDFHIDFGGTSVWYHVLKGEKIFYLIRPTNANLTLFECWSSSSNQNEMFFGDQVDKCYKCSVKQGQTLFIPTGWIHAVLTPVDCLAFGGNFLHSLNIEMQLKAYEIEKRLSTADLFRFPNFETICWYVGKHILDIFRGLRENRRHPASYLVHGGKALNLAFRAWTRKEALPDHEDEIPETVRTVQLIKDLAREIRLVEDIFQQN,soluble
6,AHPLENAWTFWFDNPQGKSRQVAWGSTIHPIHTFSTVEDFWGLYNNIHNPSKLNVGADFHCFKNKIEPKWEDPICANGGKWTISCGRGKSDTFWLHTLLAMIGEQFDFGDEICGAVVSVRQKQERVAIWTKNAANEAAQISIGKQWKEFLDYKDSIGFIVHEDAKRSDKGPKNRYTV,soluble
7,VTEVEQKLQIVHQTLSMLDSHGFENILQEMLQSITLKTGELLGADRTTIFLLDEEKQELWSIVAAGEGDRSLEIRIPADKGIAGEVATFKQVVNIPFDFYHDPRSIFAQKQEKITGYRTYTMLALPLLSEQGRLVAVVQLLNKLKPYSPPDALLAERIDNQGFTSADEQLFQEFAPSIRLILESSRSFYIATQKQRAAAAMMKAVKSLSQSSLDLEDTLKRVMDEAKELMNADRSTLWLIDRDRHELWTKITQDNGSTKELRVPIGKGFAGIVAASGQKLNIPFDLYDHPDSATAKQIDQQNGYRTCSLLCMPVFNGDQELIGVTQLVNKKKTGEFPPYNPETWPIAPECFQASFDRNDEEFMEAFNIQAGVALQNAQLFATVKQQEQGSRSHHHHHH,soluble
8,MLNQSVRFLARRANSQIRRSNLLKTGSLAAQDRGFFFGKRREPRCDLKNQSIVQADGSRKSAWLGDKPLRHESFIGILTTYAGIRRGPTVGGKEMLGKRVMKNGKLEWEWITYEQAFEISDNVSQAIRKLGIEIGDKSNIGIYSKNRPEWVLSDMAIHNFSNVSVPIYDNIPNEDMHYITNLCEIPLMFVDSEDKTTQLIKDKTYLSKSLKYIVQFDKVSDEMKAMAESNNFQLWSFDEFVELGKKHEHRPHAPPTPETLATISFTSGTTGRPKGAMLTHLNLCSTTVACEEFEHVEGELDSYLSYLPLAHVYERHCTLAHFKIGSNFHNFLNKFVEVFFFFKRISSKVTKIFRRIGFSRGDPALLVEDIQALAPRTFACVPRVLGKIYKSVMSQVQDKPVKKMILNSAIAYKLYHYKMTGKATRDTLVDKYILHKIQMILGPNIKQFLIPAAKTDNSSMRFARGAFGIEILELYGLTETSGPTTIQLVGDMLGSVGPPISCTSIKLVDIAELGYFVDENGGEVLVKGHNVTSGYYKDPKATASAFTEDGFMKTGDIGKFTPEGTLQLIDRRDNVLKLPQGEFVAPDLTESLYISSKFVQQICVHGNKEKPWLVAVVVPDPEYLASHANLEHNIEGKTYEELCKIPALAEDVLHALIKFFIWVFAIHLTPIAFSPQNGLTTPTHKNKRTAIAQFFKKQIVEMFDRIEKEEEGTELTTKIENAH,not soluble
9,MSLDLRKINLNLLLHLDTLLNELSVSKAAEKSFMSQTAMSHILKQLRDIFDDPLFIRKPHGLQPTQKVLDLAPKIKKFLNYSNDIFEEDTFNPGNDNLFLKTASVGTGEYFILPRLCAHLAKNAPKFVLKISSLSEYLSLEYLLMSELDFAIGPGFVETGNNIIRELLFEEEAVCIMHKSHPLANQELTQDMYLQAEHVDIQFSYMGNENILYKALQGYHQRNIKVIVPNIISALEVVYHTNFITTVPRTLAVTFKDRYQIELHPFPFPKKTFLVNFYYHKRLSNHKPLQWVLDVIKKYCCVNHEGHHHHHH,soluble
10,GPLGSEVKKKKNKKKNKKVNGLPPEIAAVPELAKYWAQRYRLFSRFDDGIKLDREGWFSVTPEKIAEHIAGRVSQSFKCDVVVDAFCGVGGNTIQFALTGMRVIAIDIDPVKIALARNNAEVYGIADKIEFICGDFLLLASFLKADVVFLSPPWGGPDYATAETFDIRTMMSPDGFEIFRLSKKITNNIVYFLPRNADIDQVASLAGPGGQVEIEQNFLNNKLKTITAYFGDLIRRPASET,soluble
11,MRTVSHPTPLRRAPVQRRSAERLTRILDACADLLDEVGYDALSTRAVALRADVPIGSVYRFFGNKRQMADALAQRNLERYAERVTERLTEAGDGGWRGALDTVLDEYLAMKRTAPGFSLIDFGNQIPVGDRHAVPNHRVAERLTELLSGYLGRRPDDDLRRVFLVAVETADTLVQLAFRVAPDGDEKIIEEARELLRAYLGRVLD,soluble
12,MPSGLEQCAPRCRALLQGESGVQIQGHYELKFEAVREAFAALFEDSQERGAALCIQVGGETVIDLWAGTADKDGAEAWHSDTIANLFSCTKTFTAVTALQLVAEGKLKLDAPVADYWPEFAAAGKAAITLRQLLCHQAGLPAVRELLPAQALYEWQTMVDALAAEQPWWTPGEGHGYAAITYGWLVGELIRRADGRGPGESIVARVARPLGLDFHVGLADEEFYRVAHIARGKGNMGDAAAQRLLQVTMREPDAMSTRAFTNPPSILTSTNKPEWRRMQQPAANGHGNARSLAGFYSGLLDGSLLEADMLEELTREHSLGMDKTLLTQTRFGLGCMLDQPQVANATFGLGARAFGHPGAGGSIGFADPEHDVAFGFVTNTLGPYVLMDPRAQKLVRVLSDCLLEHHHHHH,not soluble
13,MNEEQRKAGTINILAERDRKAEKDYSKYFEQVYQPPSLKEAKKRGKQEVQYNRDFHIDEKYKGMGKGRTFLIKTYGCQMNAHDTEVMAGILNALGYSATSDINEADVILINTCAIRENAENKVFSEIGNLKHLKKERPDCLIGVCGCMSQEESVVNKILKSYQNVDMVFGTHNIHHLPEILEEAYLSKAMVVEVWSKEGDIIENLPKVRDGHIKAWVNIMYGCDKFCTYCIVPFTRGKERSRRPEDIIDEVRELAREGYQEITLLGQNVNSYGKDIEGLDYELGDLLEDISKIDIPRVRFTTSHPWDFTDRMIEVIAKGGNIVPHIHLPVQSGNNQVLKIMGRKYTRESYLDLVSRIKEAIPNVALTTDIIVGYPNETEEQFEETLSLYDDVQFEHAYTYLYSQRDGTPAAKMKDNVPLEVKKERLQRLNKKVGIYSQQAMSQYEGKIVTVLCEGSSKKDENVLAGYTDKNKLVNFKGPRESIGKLVDVKIDEAKQYSLNGTFIQEHQRSMVTQLEHHHHHH,soluble
